Source: patent publication US20210388087A1 (Chugai, published 2021)
Positions count from the first letter of the chain named.

B1: CE115HA000/GLS3000 R24Q (antibody, IgG1, name in Kabat numbering, V domains shown)
VH: QVQLVESGGGVVQPGRSLRLSCAASGFTFSNAWMHWVRQAPGKGLEWVAQIKAKSNNYATYYAESVKGRFTISRDDSKNSLYLQMNSLKTEDTAVYYCRYVHYGAYYGVDAWGQGTTVTVSS
VL: DIVMTQSPLSLPVTPGEPASISCQSSQSLVHSNRNTYLHWYQQKPGQAPRLLIYKVSNRFSGVPDRFSGSGSGTDFTLKISRVEAEDVGVYYCGQGTQVPYTFGQGTKLEIK
notes: one-arm IgG1
B2: CE115HA000/GLS3000 R29G (antibody, IgG1, name in Kabat numbering, V domains shown)
VH: B1 VH
VL: B1 VL with Q24R, R34G
notes: one-arm IgG1
B3: CE115HA000/GLS3000 R54W (antibody, IgG1, name in Kabat numbering, V domains shown)
VH: B1 VH
VL: B1 VL with Q24R, R59W
notes: one-arm IgG1
B4: CE115HA000/GLS3000 S26P (antibody, IgG1, name in Kabat numbering, V domains shown)
VH: B1 VH
VL: B1 VL with Q24R, S26P
notes: one-arm IgG1
B5: CE115HA000/GLS3000 S27aN (antibody, IgG1, name in Kabat numbering, V domains shown)
VH: B1 VH
VL: B1 VL with Q24R, S28N
notes: one-arm IgG1
B6: CE115HA000/GLS3000 R54E (antibody, IgG1, name in Kabat numbering, V domains shown)
VH: B1 VH
VL: B1 VL with Q24R, R59E
notes: one-arm IgG1
B7: CE115HA000/GLS3000 R29S (antibody, IgG1, name in Kabat numbering, V domains shown)
VH: B1 VH
VL: B1 VL with Q24R, R34S
notes: one-arm IgG1
B8: CE115HA000/GLS3000 S25A (antibody, IgG1, name in Kabat numbering, V domains shown)
VH: B1 VH
VL: B1 VL with Q24R, S25A
notes: one-arm IgG1
B9: CE115HA000/GLS3000 R29Y (antibody, IgG1, name in Kabat numbering, V domains shown)
VH: B1 VH
VL: B1 VL with Q24R, R34Y
notes: one-arm IgG1
B10: CE115HA000/GLS3000 R54P (antibody, IgG1, name in Kabat numbering, V domains shown)
VH: B1 VH
VL: B1 VL with Q24R, R59P
notes: one-arm IgG1
B11: CE115HA000/GLS3000 S25D (antibody, IgG1, name in Kabat numbering, V domains shown)
VH: B1 VH
VL: B1 VL with Q24R, S25D
notes: one-arm IgG1
B12: CE115HA000/GLS3000 R29T (antibody, IgG1, name in Kabat numbering, V domains shown)
VH: B1 VH
VL: B1 VL with Q24R, R34T
notes: one-arm IgG1
B13: CE115HA000/GLS3000 S26D (antibody, IgG1, name in Kabat numbering, V domains shown)
VH: B1 VH
VL: B1 VL with Q24R, S26D
notes: one-arm IgG1
B14: CE115HA000/GLS3000 R24T (antibody, IgG1, name in Kabat numbering, V domains shown)
VH: B1 VH
VL: B1 VL with Q24T
notes: one-arm IgG1
B15: CE115HA000/GLS3000 R24S (antibody, IgG1, name in Kabat numbering, V domains shown)
VH: B1 VH
VL: B1 VL with Q24S
notes: one-arm IgG1
B16: CE115HA000/GLS3000 S27aP (antibody, IgG1, name in Kabat numbering, V domains shown)
VH: B1 VH
VL: B1 VL with Q24R, S28P
notes: one-arm IgG1
B17: CE115HA000/GLS3000 R29A (antibody, IgG1, name in Kabat numbering, V domains shown)
VH: B1 VH
VL: B1 VL with Q24R, R34A
notes: one-arm IgG1
B18: CE115HA000/GLS3000 R54Q (antibody, IgG1, name in Kabat numbering, V domains shown)
VH: B1 VH
VL: B1 VL with Q24R, R59Q
notes: one-arm IgG1
B19: CE115HA000/GLS3000 S26E (antibody, IgG1, name in Kabat numbering, V domains shown)
VH: B1 VH
VL: B1 VL with Q24R, S26E
notes: one-arm IgG1
B20: CE115HA000/GLS3000 S25V (antibody, IgG1, name in Kabat numbering, V domains shown)
VH: B1 VH
VL: B1 VL with Q24R, S25V
notes: one-arm IgG1
B21: CE115HA000/GLS3000 S27aY (antibody, IgG1, name in Kabat numbering, V domains shown)
VH: B1 VH
VL: B1 VL with Q24R, S28Y
notes: one-arm IgG1
B22: CE115HA000/GLS3000 R77S (antibody, IgG1, name in Kabat numbering, V domains shown)
VH: B1 VH
VL: B1 VL with Q24R, R82S
notes: one-arm IgG1
B23: CE115HA000/GLS3000 S27aD (antibody, IgG1, name in Kabat numbering, V domains shown)
VH: B1 VH
VL: B1 VL with Q24R, S28D
notes: one-arm IgG1
B24: CE115HA000/GLS3000 S27aI (antibody, IgG1, name in Kabat numbering, V domains shown)
VH: B1 VH
VL: B1 VL with Q24R, S28I
notes: one-arm IgG1
B25: CE115HA000/GLS3000 S27eF (antibody, IgG1, name in Kabat numbering, V domains shown)
VH: B1 VH
VL: B1 VL with Q24R, S32F
notes: one-arm IgG1
B26: CE115HA000/GLS3000 R29P (antibody, IgG1, name in Kabat numbering, V domains shown)
VH: B1 VH
VL: B1 VL with Q24R, R34P
notes: one-arm IgG1
B27: CE115HA000/GLS3000 R29V (antibody, IgG1, name in Kabat numbering, V domains shown)
VH: B1 VH
VL: B1 VL with Q24R, R34V
notes: one-arm IgG1
B28: CE115HA000/GLS3000 S25L (antibody, IgG1, name in Kabat numbering, V domains shown)
VH: B1 VH
VL: B1 VL with Q24R, S25L
notes: one-arm IgG1
B29: CE115HA000/GLS3000 R29I (antibody, IgG1, name in Kabat numbering, V domains shown)
VH: B1 VH
VL: B1 VL with Q24R, R34I
notes: one-arm IgG1
B30: CE115HA000/GLS3000 R54T (antibody, IgG1, name in Kabat numbering, V domains shown)
VH: B1 VH
VL: B1 VL with Q24R, R59T
notes: one-arm IgG1
B31: CE115HA000/GLS3000 S25T (antibody, IgG1, name in Kabat numbering, V domains shown)
VH: B1 VH
VL: B1 VL with Q24R, S25T
notes: one-arm IgG1
B32: CE115HA000/GLS3000 S25I (antibody, IgG1, name in Kabat numbering, V domains shown)
VH: B1 VH
VL: B1 VL with Q24R, S25I
notes: one-arm IgG1
B33: CE115HA000/GLS3000 S25P (antibody, IgG1, name in Kabat numbering, V domains shown)
VH: B1 VH
VL: B1 VL with Q24R, S25P
notes: one-arm IgG1
B34: CE115HA000/GLS3000 R29D (antibody, IgG1, name in Kabat numbering, V domains shown)
VH: B1 VH
VL: B1 VL with Q24R, R34D
notes: one-arm IgG1
B35: CE115HA000/GLS3000 S27aE (antibody, IgG1, name in Kabat numbering, V domains shown)
VH: B1 VH
VL: B1 VL with Q24R, S28E
notes: one-arm IgG1
B36: CE115HA000/GLS3000 S25M (antibody, IgG1, name in Kabat numbering, V domains shown)
VH: B1 VH
VL: B1 VL with Q24R, S25M
notes: one-arm IgG1
B37: CE115HA000/GLS3000 R54G (antibody, IgG1, name in Kabat numbering, V domains shown)
VH: B1 VH
VL: B1 VL with Q24R, R59G
notes: one-arm IgG1
B38: CE115HA000/GLS3000 R54S (antibody, IgG1, name in Kabat numbering, V domains shown)
VH: B1 VH
VL: B1 VL with Q24R, R59S
notes: one-arm IgG1
B39: CE115HA000/GLS3000 S27eE (antibody, IgG1, name in Kabat numbering, V domains shown)
VH: B1 VH
VL: B1 VL with Q24R, S32E
notes: one-arm IgG1
B40: CE115HA000/GLS3000 R54A (antibody, IgG1, name in Kabat numbering, V domains shown)
VH: B1 VH
VL: B1 VL with Q24R, R59A
notes: one-arm IgG1
B41: CE115HA000/GLS3000 R24Y (antibody, IgG1, name in Kabat numbering, V domains shown)
VH: B1 VH
VL: B1 VL with Q24Y
notes: one-arm IgG1
B42: CE115HA000/GLS3000 S27aG (antibody, IgG1, name in Kabat numbering, V domains shown)
VH: B1 VH
VL: B1 VL with Q24R, S28G
notes: one-arm IgG1
B43: CE115HA000/GLS3000 S27eD (antibody, IgG1, name in Kabat numbering, V domains shown)
VH: B1 VH
VL: B1 VL with Q24R, S32D
notes: one-arm IgG1
B44: CE115HA000/GLS3000 S25E (antibody, IgG1, name in Kabat numbering, V domains shown)
VH: B1 VH
VL: B1 VL with Q24R, S25E
notes: one-arm IgG1
B45: CE115HA000/GLS3000 R29L (antibody, IgG1, name in Kabat numbering, V domains shown)
VH: B1 VH
VL: B1 VL with Q24R, R34L
notes: one-arm IgG1
B46: CE115HA000/GLS3000 S27eG (antibody, IgG1, name in Kabat numbering, V domains shown)
VH: B1 VH
VL: B1 VL with Q24R, S32G
notes: one-arm IgG1
B47: CE115HA000/GLS3000 R54D (antibody, IgG1, name in Kabat numbering, V domains shown)
VH: B1 VH
VL: B1 VL with Q24R, R59D
notes: one-arm IgG1

Target: T1, CD3 epsilon homodimer protein (UniProt P07766 23-126)
T1 construct: also called CD3 (CD3 epsilon)
T1 sequence (P07766 23-126): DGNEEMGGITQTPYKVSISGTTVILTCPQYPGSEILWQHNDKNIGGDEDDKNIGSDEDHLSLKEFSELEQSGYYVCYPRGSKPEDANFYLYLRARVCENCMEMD
Assay: SPR, antibody over immobilised CD3e homodimer;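 further: SPR at 25 °C with CD3 epsilon homodimer amine-coupled to a CM4 sensor chip and antibody flowed over as analyte in HBS-EP+ running buffer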
Description: An appropriate amount of CD3 epsilon homodimer protein was immobilized onto Sensor chip CM4 (GE Healthcare Japan Corp.) by the amine coupling method. Then, the antibody having an appropriate concentration was injected thereto as an analyte and allowed to interact with the CD3 epsilon homodimer protein on the sensor chip. Then, the sensor chip was regenerated by the injection of 10 mmol/L glycine-HCl (pH 1.5). The assay was conducted at 25 degrees C., and HBS-EP+(GE Healthcare Japan Corp.) was used as a running buffer. […] Each parameter was calculated using Biacore T200 Evaluation Software (GE Healthcare Japan Corp.).

Point of comparison: B34, “KD ratio to GLS3000” value 1.58. Against it:
- B1 — lower, 0.87
- B2 — lower, 0.62
- B3 — lower, 0.65
- B4 — lower, 0.67
- B5 — lower, 0.98
- B6 — lower, 0.84
- B7 — lower, 1.05
- B8 — lower, 0.73
- B9 — lower, 1.08
- B10 — lower, 1.05
- B11 — higher, 8.86
- B12 — lower, 1.02
- B13 — lower, 1.06
- B14 — lower, 1.03
- B15 — lower, 0.97
- B16 — lower, 1.01
- B17 — lower, 1.15
- B18 — lower, 1.04
- B19 — lower, 0.9
- B20 — lower, 0.74
- B21 — lower, 0.93
- B22 — lower, 0.94
- B23 — lower, 0.94
- B24 — lower, 0.87
- B25 — lower, 1.16
- B26 — higher, 14
- B27 — higher, 2.25
- B28 — higher, 4.93
- B29 — higher, 1.6
- B30 — lower, 0.89
- B31 — lower, 0.75
- B32 — lower, 0.67
- B33 — lower, 0.79
- B35 — lower, 0.94
- B36 — higher, 1.6
- B37 — lower, 0.88
- B38 — lower, 0.78
- B39 — lower, 1.04
- B40 — lower, 0.85
- B41 — lower, 0.94
- B42 — lower, 0.8
- B43 — lower, 1.23
- B44 — higher, 8.54
- B45 — lower, 0.9
- B46 — lower, 1.03
- B47 — higher, 1.8
